From the nanobody polyreactivity screen of Harvey et al. (2022)

Assay: yeast display, Sf9 membrane polyspecificity reagent, FACS + sequencing; frameworks hold sequencing errors
Method in brief: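 Galactose-induced (36–48 hours) yeast carrying a synthetic nanobody display library were exposed to 10% biotinylated, detergent-solubilized Sf9 membrane reagent at 4 °C for 1 hour. FACS followed streptavidin microbead enrichment, using low and high (top ~1%) gates for expression (anti-HA) and reagent binding (streptavidin). Colony PCR, MiSeq 2 × 250 sequencing and CDR-length filtering followed. Labels for polyreactivity reflect the gate of origin.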

Row | Sequence | polyreactivity (PSR sort gate)
1 | QVQLVESGGGIVQAGGSLRLSCAASGRIFQYYAMGWYRQAPGKERELVASISGRGGRTYYADSVKGRFTISRDNAKNTVYLQMNSLKPEDTAVYYCNAVFSTIRYIRSYNYWGQGTQVTVSS | high polyreactivity
2 | QVQLVESGGGLVQAGGSLRLSCAASGRIFVRNAMGWYRQAPGKEMEFVAAISRSGGSTYYADSVKGRFTISRDNAKNTVYLQMNSLKPEDTAVYYCAADYPKTYTSKFNYWGQGTQVTVSS | high polyreactivity
3 | QVQLVESVGGLVQAGGSLRLSCAASGFNFSAYAMGGYRQAPGKESELVAAISWSGSRTYYADSVKGRFTISRDNAKNTVYLQMNSLKPEDTAVFYCAKEPYDTFGFYEYDYWGQGTQVTVSS | low polyreactivity
4 | QDHLVESGGGLVQAGGSLRLSCAASGFLFSQNVMGWYRQAPGKERELVAAISSGSRTYYADSVKGRFTISRDNAKNTVYLQMISLKPEDTAVYYCATDARVGGYVSEGDYWGLGTQVTVSS | low polyreactivity
5 | QVQLEESGGGVVQAGGSLRLSCAASGGIFNVYVMGWYRQAPGKERELVAAITWRGGSTYYADSVKGRFTISRDNAKNTVYLQMNSLKPEDTAVYYCNADAPFQSSSDGYQVEYWGQGTQVTVSS | low polyreactivity
6 | QVQLVESGGGLVQEGGSLCLSCAASGINFYYYTMGWYRQATGKERELVDAISGDDTHYADSVKGRFTISGDNAKKTVYLLMNSLKADHTAVYYCAAGYIYWDTVQSVYEYGYCGQGTQVTVSS | low polyreactivity
7 | QVQLVESGGGLVQAGGSLRLSCAASGRTFSTNAMGLYRQAPGKEREFVAAITGSGGSTYYADSVKGRFTISRDNAKNTVYLQINSLKPEDTAVYYCAKRSAWHTYRYGYWGQGTQVTVSS | high polyreactivity
8 | QVQLVESGGGLVQAGGSLRLSWAASGRIFGRYAMGWYRQAPGKERELVAAISYSGGSTYYADSVKGRFTISRDNAKNTVYLQMNSLKPEDTAVFYCNRYPTYGRTSYVTYYYWGQGTQVTVSS | high polyreactivity
9 | QVQLVESGGGLVQAGGSLRLSCAASGRTFWGYTMGWYRQAPGKERELVAAITASGGSTRYADSVKGRFTISRDNAKNTVYLQMNSLKPEDTAVYYCASRGQYFTDYYYRGNYWGQGTQVTVSS | high polyreactivity
10 | QVQLVESGGGVVQAGGSLRLSCAASGNIFAVYAMGWYREAPGKERELVAAIRKSGATTYYADSVKGRFTISRDNAKNTVYLQIHSLKPEDTAVYYCAARTFKDAGTAYGSWGQGTQVTVSS | high polyreactivity
11 | QVQLVESGGGLVQAGGSLRLSCAASGRIFYPYAMGWYRQAPGKERELVAVISYSGGGTYYADSVKWRFTISRDNAKNTVYLQMNRMKPEDTAVYYCAAYADYSYYVYDYWGQGTQVTVSS | high polyreactivity
12 | QVQLVESGGGLVQAGGSLRLSCAASGLTFGSYAMGWYRQAPGKERELVAAISRSGITYYADSVKGRFTISRDNAKNTVYLQMNSLKPEDTAVYYWAVTQNSKSTKIRPDQGDYGGQGTQVTVSS | high polyreactivity
13 | QVQLVESGGGLVQAGGSLRLSCAASGSIYRYNDMGWYRQAPGKERELVATITSGTNTYYADSVKGRFTISRDNAKNTVYLQMNSLKPEDTAVYYCAKSYIAWDGRTFEEMYYWGQGTQVTVSS | low polyreactivity
14 | QVQLVESGGGLVQAGGSLRLSCAASGSTFRKYAMGWYRQAPGKEREFVAAITWSTGTTYYADSVKGRFTISRDNAKNTVYLQMNSLIPEDTAVYYCAADSQPPHELYESIEHESWGQGTQVTVSS | low polyreactivity
15 | QVQLVESGGGLVQAGGSLRLSCAASGRTFVGYAMGWYRQAPGKERELVAAITSGGSTYYADSVKGRFTISRDNAKNTVYLQMNSLKPEDTAVYYCATALYDWYSLEFDYWGQGTQVTVSS | low polyreactivity
16 | QVHLLESGGGLFQPGGSLRLSCAASGRIFTSYAMGWYRPAPGKESELVAAISWGGGRTYYADSVKGRYTISRDNAKNTVYLQMNSVKPEDTAVYYCAALIADRDSPYDYWGQGTQVTVSS | high polyreactivity
17 | QVQLVESGGGLVQAGGSLRLSCAASGFTYHVYAMGWYRQAPGKERELVAAISTGDDTTFYADSVKGRFTISRDNAKNTVYLQMNSLKPEDSAVYYCAAEYQVEYYYTTNFLTTYDYWGQGTQVTVSS | low polyreactivity
18 | QVQLVESGGGLFQAGGSLRLSCAASGRTIYLNAMGWYRQAPLKERELVAAITSSGGRTYYADSVKGRFTISRDNAKNSVYLQMNSLKPEDTAVYYCAAVVSSKPSFYWGQGSQVTVSS | low polyreactivity
19 | QVQLVESGGGLVQAGGSLRLSCAASGRIFISNAMGWYRQAPGKERELVAAITWIGDRTYYADSVKGRFTISRDNAKNTVYLQMNSLKPEDTAVYYCNRVTSRVSGRYSYDYWGQGTQVTVSS | high polyreactivity
20 | QVQLVESGGGLVQAGGSLRLSCAASGITFYTYAMGWYRQAPGKERELVAAITWRGGRTSYADSVKGRFTISRDNAKNTVYLQMNSLKPEDTAVYYCAKEAHPPWTSQDVFRSYDYWGQGTQVTVSS | low polyreactivity
21 | QVQLVESGGRLVQAGGSLRLSCAASGRIFTYNAMGWYTQAPGKERELVAGITRRGGSTYYADSVKGRFTISRDNAKNTVYLQMNSLKPEDTAVYYCAATYPNARRYEYWGQGTQVTVSS | high polyreactivity
22 | QVQLVESGGGLDQAGGSLRLSCAASGFTLYRNAMGWYRQAPGKERELVAAITSSGGRTYYADSVKGRFTISRDNAKYTVYLQMNSLKPEDTAVYYCAAEFGLGYYYWGQGTQVNVSS | high polyreactivity

Row | Sequence | polyreactivity (PSR sort gate)
23 | QVQLVESGGGLVQAGGSLRLSCAASGSTLYQYAMGWYRQAPGKERELVAAITKSGGRTYYADSVKGRFTISRDNAKNTVYLQMNSLKPEDTAVYYCNVVRGSYSSGGDYWGQGTQVTVSA | high polyreactivity
24 | QVLLVESGGGLVQAGGSLRLSCAASGSTFNYNAMGWYRQAPGKERELVAVITSGGRTNYADSVKGRFTISRDNAKNTVYLQMNSLKPEDTAVYSCNAEHVSYHFNLKYSGESWGQGTQVTVSS | low polyreactivity
25 | QVQLVESGGGLVQAGGSLRLSCAASGSTFSSYAMGWYRQAPGKERELVAATYYADSVKGRFTISRDNAKNTVYLQMNSLKPEDTAVYYCNADNDYQGGKEYDYWGQGTQVTVSS | low polyreactivity
26 | QVQLVESGGGLVQAGGSLRLSCAASGSTLVLNAMGWYRQAPGKERELVAAITISGDTTYYADSVKGRFTISRDNAKNTVYLQMNSLKPEDTAVYYCAVDSFLVYSAVRPYDYWGQGTQVTVSS | low polyreactivity
27 | QVQLVESGGGLVQAGGSLRLSCAASGFTFDQYAMGWYRQAPGKEREFVAAINQSTGSTYYADSVKGRFTISRDNAKNTVYLQMISLKPEDTAVYYCAAEESSTSSEYDYWGQGTQVTVSS | low polyreactivity
28 | QVQLVETGGGLVQAGGSLRLSCAASGSIFVRKAMGWYRQAPGKERELVATISYRGASTYYADSVKGRFTISRDNAKNTVYLQLNCLKPEDTAVYYCNAPRFVGLNVYGYDYWGQGTQVTLSS | high polyreactivity
29 | QVQLVESGGGLVQAGGRLRLSCAASGSIFRYYAMGWYRQATGKERELVAAITRGDSTNYADSVKGRFTISRDNAKNTVYLQMNSLKPEDTAVYYCAASRYHGWYVKMGYWGQGTQVTVSS | high polyreactivity
30 | QVQLVESGGGLVQAGGSLRLSCAASGSIFFTYAMGWYRQAPGKERELVAVISSNGARTYYADSVKGRFTISRDNAKNTVYLQMNSLKPEDPAVYYCAARSQGNYGWGQGTQVTVSS | high polyreactivity
31 | QVQLVESGGGLVQAGGSLRLSCAASGSIFPRNVMGWYRQEPGKERQLVAVITARGGSTYYADSVKGRFTISRDNAKNTVYLQMNSLKPEDTAVYYCATPYSRRKIPPNYDYWGLGTQVTVSS | high polyreactivity
32 | QVQLVESGGGLVQAGGSLRISCAASGLTFRLYVMGWYRQAPGKERELVATISRSGGSTHYADSVKGRFTISRDNAKNTVYLQMNSLKPEDTAVYDCAARLFYFGSDFDYWGQGTQVTVSS | high polyreactivity
33 | QVQLVESGGGLVQAGGSLRLSCAASGYIFLNYAMGWYRQAPGKEREFVATITSSGGTTYYADSVKGRFTISRDNAKNTVYLQMNSLKPEDTAVYYCNADAGWYDWVYYVGRDYWGQGTQVTVSS | low polyreactivity
34 | QVQLVESGGGLVQAGGSLRLSCAASGRIFDKYTMGWYRQAPGKERELVATMTRGGVSTYYADSVKGRFTISRDNAKNTVYLQMNSLKPEDTAVYYCNAVWRLRVRYGYWGQGTHVTVSS | high polyreactivity
35 | QVQLVESGGGLVQAGGSLRLSCAASGSTFYYYALGWYRQAPGKERELVASITRGGGSTYYADSVKGRFTISRDNAKNTVYLQMNSLKPEDTAVYYCAARGRFRKYDYWGQGTQVTVSS | high polyreactivity
36 | QVQLVESGGGLVQAGGSLRLSCAASGNIFYYNAMGGNRQAPGKERELVAAITTGGSTNYADSVKGRFTISRDNAKNTVYLQMNSLTPEDTAVYDCAADFIRYINRLLYDYWGQGTQVTVSS | low polyreactivity
37 | QVQLVESGGGLVQAGGSLRLSCAASGSTFYSNVMGWYRQAPGKERELVAAISRSGGSTYYADSVKGRFTISRDNAKNTVYLQMNSLKPEDTAVYYCAAEREVGDAYDYWGQGTQVTVSS | high polyreactivity
38 | QVQLVESGGGLVQAGGSLRLSCAASGYTFTINAMGWYRQAPGKERELVAAISWNGGRTYYADSVKGRFTISRDNAKNTDYVQMNSLQPEDTAVCYCNADTYSAGDYWGQGTQVTVSS | high polyreactivity
39 | QVQLVESGGGLVQAGGSLRLSCAASGITFVLYAMGWYRQAPGKERELVAANSSSGGRTYYADSVKGRFTISRDYAKNTVYLQMNSLKPEDTAVYYCAKDTYGFAANRPAGDGYWGQGTQVTVSS | high polyreactivity
40 | QVQLVESGGGLVQAGGSLRLICAASGRTFRYYTMGWYRQAPGKERELVAAISWRGGSTYYADSVKGRFTISRDNAKNTVYLQMNSLKPEDTAVYYCAAKRPKRYNEGYYWGQGTQVTVSS | high polyreactivity
41 | QVQLVESGGGLVQAGGSLRLSCAASGSTFGFYAMGWYRQAPGTERELVAVISSGDSPYYADSVKGRFTISRDNAKNTVYLKMNSRKPEDTAVYYCAKDALVIDGGGGYDYWGQGTQVTVSS | low polyreactivity
42 | QVQHVESGGGLVQAGGSLGLSCAASGRIFGVYAMGWYTQAPGKERELVAAIWSGGSTYYADSVKGRFTISRDNAKNTVYLQMNSLKPEDTAVYYCAADDAYSHRSLYSHNDYWGQGNQVTVSS | low polyreactivity
43 | QVQLVETGGGLVQAGGSLRLSCAASGSTFVWYDMGRYRQAPGKERELVATITSGGITTYADSVKGRFTISRDNAKNTVYLKMNSLKPEDTAVYYCNADLYYWLRYYDRNDYLGQGTQVTVSS | low polyreactivity
